Reference: article doi:10.1101/2020.12.31.424868 (bioRxiv, 2020)

Target: head domain of VN/04 HA (A/Vietnam/1203/2004 H5N1), monomeric (Influenza A virus A/Vietnam/1203/2004 …, strain)
Experiment: crystal structure

B1: H5.31 Fab (recombinant) (Fab, V domains shown)
VH: EVQLVQSGGGLVQPGGSLRLSCEASRFTSSSYWITWVRQAPGKGLEWVANIKQDGSEKYFVDSVKGRFTISRDNASNSLYLQMSSLRAEDTAVYYCARGFLERLLLGRQGAYYYGMDVWGQGTTVTVSS
VL: DIVMTQSPFSLSASVGDRVTMTCRASQSISSSLNWYQQKPGKAPKLLIYAASNLQSGVPSRFSGSGSGTDFTLTISSLQPEDFATYYCQQSYTMPPELTFGGGTKVEIK
  binding result: binds
